Source: patent US10450368

What was measured:
[1] = molecular target: CH505w136.B12D8gp120 (HIV-1); experiment: direct-binding ELISA
[2] = molecular target: CH505w160.C11D8gp120 (HIV-1); experiment: direct-binding ELISA
[3] = molecular target: CH505w160.C4D8gp120 (HIV-1); experiment: direct-binding ELISA
CH505.M21D8gp120/293F = experiment: direct-binding ELISA
[4] = molecular target: CH505w160.C14D8gp120 (HIV-1); experiment: direct-binding ELISA
[5] = molecular target: CH505w160.T4D8gp120/293F (HIV-1); experiment: direct-binding ELISA
[6] = molecular target: CH505_w137V209C12.D11gp120 (HIV-1); experiment: direct-binding ELISA
[7] = molecular target: CH505w136.B8D8gp120 (HIV-1); experiment: direct-binding ELISA
[8] = molecular target: CH505w136.B2D8gp120/293F (HIV-1); experiment: direct-binding ELISA
[9] = molecular target: CH505w160.C12D8gp120 (HIV-1); experiment: direct-binding ELISA
[10] = molecular target: CH505w136.B3D8gp120/293F (HIV-1); experiment: direct-binding ELISA
CH505.M10D8gp120 = experiment: direct-binding ELISA
[11] = molecular target: CH505w136.B18D8gp120 (HIV-1); experiment: direct-binding ELISA
[12] = molecular target: CH505.TF mutant gp120 M20 (HIV-1); experiment: direct-binding ELISA
[13] = molecular target: CH505_w137V201B12.D11gp120 (HIV-1); experiment: direct-binding ELISA
CH505.M11D8gp120/293F = experiment: direct-binding ELISA
[14] = molecular target: CH505w160.D5D8gp120/293F (HIV-1); experiment: direct-binding ELISA
[15] = molecular target: CH505w136.B4D8gp120 (HIV-1); experiment: direct-binding ELISA
CH505.M19D8gp120 = experiment: direct-binding ELISA
[16] = molecular target: CH505w136.B20D8gp120 (HIV-1); experiment: direct-binding ELISA
[17] = molecular target: CH505w160.A1D8gp120 (HIV-1); experiment: direct-binding ELISA
[18] = molecular target: CH505.TF mutant gp120 M6 (HIV-1); experiment: direct-binding ELISA
[19] = molecular target: CH505w136.B36D8gp120 (HIV-1); experiment: direct-binding ELISA
CH505.M7D8gp120/293F = experiment: direct-binding ELISA
[20] = molecular target: CH505w160.C2D8gp120 (HIV-1); experiment: direct-binding ELISA
[21] = molecular target: CH505w160.D1D8gp120 (HIV-1); experiment: direct-binding ELISA
[22] = molecular target: CH505w136.B29D8gp120 (HIV-1); experiment: direct-binding ELISA
[23] = molecular target: CH505w136.B27D8gp120 (HIV-1); experiment: direct-binding ELISA
[24] = molecular target: CH505w160.T2D8gp120 (HIV-1); experiment: direct-binding ELISA
[25] = molecular target: CH505w136.B10D8gp120 (HIV-1); experiment: direct-binding ELISA
CH505.M9D8gp120/293F = experiment: direct-binding ELISA
CH505.M5D8gp120293F = experiment: direct-binding ELISA
[26] = molecular target: CH505w136.B5D8gp120 (HIV-1); experiment: direct-binding ELISA
[27] = molecular target: CH505.TF mutant gp120 M8 (HIV-1); experiment: direct-binding ELISA
Centromere B [28] = molecular target: Centromere B (UniProt P07199); experiment: AtheNA, Ab 6.25 ug/ml
Jo-1 [29] = molecular target: Jo-1 (UniProt P12081); experiment: AtheNA, Ab 6.25 ug/ml
Histones [30] = experiment: AtheNA, Ab 6.25 ug/ml
Scl-70 [31] = molecular target: Scl-70 (UniProt P11387); experiment: AtheNA, Ab 6.25 ug/ml
SSB [32] = molecular target: SSB (UniProt P05455); experiment: AtheNA, Ab 6.25 ug/ml
Sm (Smith antigen) [33] = experiment: AtheNA, Ab 6.25 ug/ml
SSA [34] = experiment: AtheNA, Ab 6.25 ug/ml
RNP (ribonucleoprotein) [35] = experiment: AtheNA, Ab 6.25 ug/ml
Centromere B [36] = molecular target: Centromere B (UniProt P07199); experiment: AtheNA, Ab 25 ug/ml
Jo-1 [37] = molecular target: Jo-1 (UniProt P12081); experiment: AtheNA, Ab 25 ug/ml
Histones [38] = experiment: AtheNA, Ab 25 ug/ml
SSB [39] = molecular target: SSB (UniProt P05455); experiment: AtheNA, Ab 25 ug/ml
Sm (Smith antigen) [40] = experiment: AtheNA, Ab 25 ug/ml
SSA [41] = experiment: AtheNA, Ab 25 ug/ml
RNP (ribonucleoprotein) [42] = experiment: AtheNA, Ab 25 ug/ml
Centromere B [43] = molecular target: Centromere B (UniProt P07199); experiment: AtheNA, Ab 25 ug/ml; remark: listed apart in the source
Jo-1 [44] = molecular target: Jo-1 (UniProt P12081); experiment: AtheNA, Ab 25 ug/ml; remark: listed apart in the source
Histones [45] = experiment: AtheNA, Ab 25 ug/ml; remark: listed apart in the source
Scl-70 [46] = molecular target: Scl-70 (UniProt P11387); experiment: AtheNA, Ab 25 ug/ml
SSB [47] = molecular target: SSB (UniProt P05455); experiment: AtheNA, Ab 25 ug/ml; remark: listed apart in the source
Sm (Smith antigen) [48] = experiment: AtheNA, Ab 25 ug/ml; remark: listed apart in the source
SSA [49] = experiment: AtheNA, Ab 25 ug/ml; remark: listed apart in the source
RNP (ribonucleoprotein) [50] = experiment: AtheNA, Ab 25 ug/ml; remark: listed apart in the source
Centromere B [51] = molecular target: Centromere B (UniProt P07199); experiment: AtheNA, Ab 12.5 ug/ml
Jo-1 [52] = molecular target: Jo-1 (UniProt P12081); experiment: AtheNA, Ab 12.5 ug/ml
Histones [53] = experiment: AtheNA, Ab 12.5 ug/ml
Scl-70 [54] = molecular target: Scl-70 (UniProt P11387); experiment: AtheNA, Ab 12.5 ug/ml
SSB [55] = molecular target: SSB (UniProt P05455); experiment: AtheNA, Ab 12.5 ug/ml
Sm (Smith antigen) [56] = experiment: AtheNA, Ab 12.5 ug/ml
SSA [57] = experiment: AtheNA, Ab 12.5 ug/ml
RNP (ribonucleoprotein) [58] = experiment: AtheNA, Ab 12.5 ug/ml

Chain of SSB (P05455 whole entry): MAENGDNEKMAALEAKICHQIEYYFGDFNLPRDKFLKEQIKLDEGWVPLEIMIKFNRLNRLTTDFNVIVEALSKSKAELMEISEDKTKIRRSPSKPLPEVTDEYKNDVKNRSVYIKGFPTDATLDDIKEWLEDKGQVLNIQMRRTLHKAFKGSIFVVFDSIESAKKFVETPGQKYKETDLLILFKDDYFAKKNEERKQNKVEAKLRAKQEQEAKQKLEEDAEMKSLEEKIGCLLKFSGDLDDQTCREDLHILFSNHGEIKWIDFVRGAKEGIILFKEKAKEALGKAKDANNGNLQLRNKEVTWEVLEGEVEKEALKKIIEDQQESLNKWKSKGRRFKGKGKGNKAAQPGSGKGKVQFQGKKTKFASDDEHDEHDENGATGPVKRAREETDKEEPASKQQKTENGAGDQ
Chain of Jo-1 (P12081 whole entry): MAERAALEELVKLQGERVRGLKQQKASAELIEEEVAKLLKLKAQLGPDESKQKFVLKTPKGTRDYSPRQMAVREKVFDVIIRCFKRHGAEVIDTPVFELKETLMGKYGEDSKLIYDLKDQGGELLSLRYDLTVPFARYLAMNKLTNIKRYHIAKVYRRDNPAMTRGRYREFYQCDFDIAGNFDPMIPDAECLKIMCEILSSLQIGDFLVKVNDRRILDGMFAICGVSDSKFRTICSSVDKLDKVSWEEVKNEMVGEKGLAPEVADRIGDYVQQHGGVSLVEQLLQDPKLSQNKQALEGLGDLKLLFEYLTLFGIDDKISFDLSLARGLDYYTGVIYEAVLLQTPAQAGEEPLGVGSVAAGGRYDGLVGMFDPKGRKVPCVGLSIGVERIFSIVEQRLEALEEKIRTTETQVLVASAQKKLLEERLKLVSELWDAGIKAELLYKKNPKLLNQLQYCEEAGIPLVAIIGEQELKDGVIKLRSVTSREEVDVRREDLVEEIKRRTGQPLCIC
Chain of Centromere B (P07199 whole entry): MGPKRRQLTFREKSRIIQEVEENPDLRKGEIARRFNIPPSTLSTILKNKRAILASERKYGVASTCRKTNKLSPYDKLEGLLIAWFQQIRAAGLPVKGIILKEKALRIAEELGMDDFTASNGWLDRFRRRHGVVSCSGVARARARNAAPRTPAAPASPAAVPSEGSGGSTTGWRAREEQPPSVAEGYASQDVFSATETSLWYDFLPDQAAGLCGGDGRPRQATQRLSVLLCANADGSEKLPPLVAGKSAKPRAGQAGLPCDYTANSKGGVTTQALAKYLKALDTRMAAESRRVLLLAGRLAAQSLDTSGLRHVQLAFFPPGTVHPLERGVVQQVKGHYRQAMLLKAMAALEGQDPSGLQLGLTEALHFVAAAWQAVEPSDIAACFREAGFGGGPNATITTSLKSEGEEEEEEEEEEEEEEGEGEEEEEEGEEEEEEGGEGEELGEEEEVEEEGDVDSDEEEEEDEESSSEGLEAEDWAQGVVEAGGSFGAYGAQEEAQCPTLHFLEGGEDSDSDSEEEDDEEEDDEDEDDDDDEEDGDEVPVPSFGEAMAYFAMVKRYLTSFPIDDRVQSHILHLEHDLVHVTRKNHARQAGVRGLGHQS
Chain of Scl-70 (P11387 whole entry): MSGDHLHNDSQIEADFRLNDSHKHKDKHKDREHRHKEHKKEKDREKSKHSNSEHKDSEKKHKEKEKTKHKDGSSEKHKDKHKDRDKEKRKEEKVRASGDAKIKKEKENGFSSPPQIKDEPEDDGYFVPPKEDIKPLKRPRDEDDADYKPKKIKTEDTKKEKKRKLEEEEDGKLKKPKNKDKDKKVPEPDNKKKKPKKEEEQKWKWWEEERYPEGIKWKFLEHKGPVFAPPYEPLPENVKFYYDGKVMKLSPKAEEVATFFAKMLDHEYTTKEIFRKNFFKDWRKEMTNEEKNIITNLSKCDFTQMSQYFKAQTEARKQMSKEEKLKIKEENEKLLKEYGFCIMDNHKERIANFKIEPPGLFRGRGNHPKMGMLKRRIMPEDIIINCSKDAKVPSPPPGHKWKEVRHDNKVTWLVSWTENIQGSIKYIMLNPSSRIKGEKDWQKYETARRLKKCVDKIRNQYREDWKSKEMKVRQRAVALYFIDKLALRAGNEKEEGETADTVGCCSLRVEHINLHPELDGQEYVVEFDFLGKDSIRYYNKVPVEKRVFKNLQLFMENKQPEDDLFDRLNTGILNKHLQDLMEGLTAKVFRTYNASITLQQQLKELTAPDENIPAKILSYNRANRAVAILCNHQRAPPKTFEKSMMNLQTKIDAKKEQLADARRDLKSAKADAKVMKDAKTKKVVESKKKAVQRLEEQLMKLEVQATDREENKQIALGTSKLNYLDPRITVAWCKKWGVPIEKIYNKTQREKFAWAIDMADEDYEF

CH248 (antibody)
LogAUC [1]: 12.9
LogAUC [2]: 10.7
LogAUC [3]: 10.5
LogAUC (CH505.M21D8gp120/293F): 13.8
LogAUC [4]: 10.3
LogAUC [5]: 13.5
LogAUC [6]: 14.7
LogAUC [7]: 12.3
LogAUC [8]: 13.4
LogAUC [9]: 12.9
LogAUC [10]: 14
LogAUC (CH505.M10D8gp120): 13.8
LogAUC [11]: 14.3
LogAUC [12]: 13.2
LogAUC [13]: 13.4
LogAUC (CH505.M11D8gp120/293F): 13.6
LogAUC [14]: 7.84
LogAUC [15]: 13.4
LogAUC (CH505.M19D8gp120): 13.2
LogAUC [16]: 12.9
LogAUC [17]: 8.62
LogAUC [18]: 13.6
LogAUC [19]: 14.4
LogAUC (CH505.M7D8gp120/293F): 12.4
LogAUC [20]: 11.1
LogAUC [21]: 8.75
LogAUC [22]: 12.3
LogAUC [23]: 12.9
LogAUC [24]: 8.34
LogAUC [25]: 11.5
LogAUC (CH505.M9D8gp120/293F): 13
LogAUC (CH505.M5D8gp120293F): 11
LogAUC [26]: 14.6
LogAUC [27]: 12.3

CH105 (antibody)
LogAUC [1]: 9.67
LogAUC [2]: 7.7
LogAUC [3]: 6.55
LogAUC (CH505.M21D8gp120/293F): 11.2
LogAUC [4]: 6.58
LogAUC [5]: 12.2
LogAUC [6]: 12.7
LogAUC [7]: 9.86
LogAUC [8]: 12.4
LogAUC [9]: 11.1
LogAUC [10]: 12
LogAUC (CH505.M10D8gp120): 11.3
LogAUC [11]: 13.7
LogAUC [12]: 10.6
LogAUC [13]: 11
LogAUC (CH505.M11D8gp120/293F): 11.7
LogAUC [14]: 4.58
LogAUC [15]: 10.7
LogAUC (CH505.M19D8gp120): 10.9
LogAUC [16]: 10.7
LogAUC [17]: 6.66
LogAUC [18]: 11.1
LogAUC [19]: 12.8
LogAUC (CH505.M7D8gp120/293F): 10.2
LogAUC [20]: 8.61
LogAUC [21]: 6.03
LogAUC [22]: 10.2
LogAUC [23]: 10.4
LogAUC [24]: 4.94
LogAUC [25]: 8.52
LogAUC (CH505.M9D8gp120/293F): 10.6
LogAUC (CH505.M5D8gp120293F): 8.63
LogAUC [26]: 10.6
LogAUC [27]: 9.33

synagis (antibody)
AtheNA signal (relative luminescence units) (Centromere B [28]): 2
AtheNA signal (relative luminescence units) (Jo-1 [29]): 1
AtheNA signal (relative luminescence units) (Histones [30]): 3
AtheNA signal (relative luminescence units) (Scl-70 [31]): 2
AtheNA signal (relative luminescence units) (SSB [32]): 5
AtheNA signal (relative luminescence units) (Sm (Smith antigen) [33]): 2
AtheNA signal (relative luminescence units) (SSA [34]): 2
AtheNA signal (relative luminescence units) (RNP (ribonucleoprotein) [35]): 3
AtheNA signal (relative luminescence units) (Centromere B [36]): 2
AtheNA signal (relative luminescence units) (Jo-1 [37]): 4
AtheNA signal (relative luminescence units) (Histones [38]): 2
AtheNA signal (relative luminescence units) (SSB [39]): 4
AtheNA signal (relative luminescence units) (Sm (Smith antigen) [40]): 4
AtheNA signal (relative luminescence units) (SSA [41]): 11
AtheNA signal (relative luminescence units) (RNP (ribonucleoprotein) [42]): 0
AtheNA signal (relative luminescence units) (Centromere B [43]): 4
AtheNA signal (relative luminescence units) (Jo-1 [44]): 2
AtheNA signal (relative luminescence units) (Histones [45]): 5
AtheNA signal (relative luminescence units) (Scl-70 [46]): 2
AtheNA signal (relative luminescence units) (SSB [47]): 7
AtheNA signal (relative luminescence units) (Sm (Smith antigen) [48]): 3
AtheNA signal (relative luminescence units) (SSA [49]): 3
AtheNA signal (relative luminescence units) (RNP (ribonucleoprotein) [50]): 4
AtheNA signal (relative luminescence units) (Centromere B [51]): 2
AtheNA signal (relative luminescence units) (Jo-1 [52]): 6
AtheNA signal (relative luminescence units) (Histones [53]): 3
AtheNA signal (relative luminescence units) (Scl-70 [54]): 3
AtheNA signal (relative luminescence units) (SSB [55]): 5
AtheNA signal (relative luminescence units) (Sm (Smith antigen) [56]): 7
AtheNA signal (relative luminescence units) (SSA [57]): 2
AtheNA signal (relative luminescence units) (RNP (ribonucleoprotein) [58]): 3
